B1: Tyrosine-protein phosphatase non-receptor type 1 (Homo sapiens), P18031 (parent)
chain: MEMEKEFEQIDKSGSWAAIYQDIRHEASDFPCRVAKLPKNKNRNRYRDVSPFDHSRIKLHQEDNDYINASLIKMEEAQRSYILTQGPLPNTCGHFWEMVWEQKSRGVVMLNRVMEKGSLKCAQYWPQKEEKEMIFEDTNLKLTLISEDIKSYYTVRQLELENLTTQETREILHFHYTTWPDFGVPESPASFLNFLFKVRESGSLSPEHGPVVVHCSAGIGRSGTFCLADTCLLLMDKRKDPSSVDIKKVLLEMRKFRMGLIQTADQLRFSYLAVIEGAKFIMGDSSVQDQWKELSHEDLEPPPEHIPPPPRPPKRILEPHNGKCREFFPNHQWVKEETQEDKDCPIKEEKGSPLNAAPYGIESMSQDTEVRSRVVGGSLRGAQAASPAKGEPSLPEKDEDHALSYWKPFLVNMCVATVLTAGAYLCYRFLFNSNT

Variants of: B1
Settings: with insr_human INSR

effect of a mutation on the interaction	Variant
disrupting interaction	S50D

Variants of: B1
Settings: with insr_human INSR
Remark: another data set of the same source

effect of a mutation on the interaction	Variant
decreasing interaction	S50A

— IntAct's records for PubMed 11579209
